Data: patent US11111295B2, “Antibody for anti-claudin 18A2 and use thereof” (CAFA THERAPEUTICS LIMITED, priority 2016, dated 2021)

Key:
human CLD18A2 [1] = target: T1, human CLD18A2 (Homo sapiens, UniProt P56856); experiment: Flow cytometry binding of hybridoma supernatants to HEK293 cells stably transfected with human CLD18A2; settings: hybridoma supernatant; most of subclones after two rounds of subcloning; HEK293 transfectants
T1 construct: expressed in transfected cells
T1 sequence (P56856 1-261 isoform P56856-2): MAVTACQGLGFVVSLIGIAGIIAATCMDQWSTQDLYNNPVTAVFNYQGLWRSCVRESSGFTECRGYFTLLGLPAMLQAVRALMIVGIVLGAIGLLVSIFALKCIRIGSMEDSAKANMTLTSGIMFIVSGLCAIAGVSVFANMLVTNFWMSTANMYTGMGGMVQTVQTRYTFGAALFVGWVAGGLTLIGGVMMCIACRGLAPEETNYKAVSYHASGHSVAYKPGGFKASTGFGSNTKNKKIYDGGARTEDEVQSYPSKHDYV
Description: Individual cells were screened for anti-CLD18A2 monoclonal antibody by flow cytometry, and HEK293 cells (HEK-CLD18A2) stably expressing human CLD18A2 were used for primary screening by flow cytometry using a Guava easyCyte™ HT System instrument. The binding of the antibody to human CLD18A1 and CLD18A2 transformants was then compared by flow cytometry. The instrument used was the Guava easyCyte™ HT System.
After multiple rounds of preparation and screening of hybridomas, the inventors found several antibodies with relatively ideal binding properties.

human CLD18A2 [2] = target: T1, human CLD18A2; experiment: Flow cytometry binding of scFv_Fc fusion antibody to HEK293 cells stably transfected with human CLD18A2 (EC50); settings: scFv fused to human IgG1 Fc portion, read-out: relative binding affinity EC50 value
Method: Binding of anti-Claudin 18A2 scFv_Fc fusion antibody to HEK293 cells stably transfected with CLD18A2 was determined by flow cytometry. Experimental data was analyzed using GraphPad Prism and Guava easyCyte™ HT System instrument as described in Example 1 to obtain EC50 value.
Expression vectors of ScFv Fc-form of the two mutants were constructed as described in Example 2, and according to the procedure of Example 2, and the experimental data was analyzed using GraphPad Prism and Guava easyCyte™ HT System instrument to obtain EC50.
The binding activity assay was performed as described in Example 2, and experimental data was analyzed using HEK293 cells (HEK-CLD18A2) stably expressing human CLD18A2, GraphPad Prism and Guava easyCyte™ HT System instrument to obtain EC50, and the results are shown in FIG. 5.
(5) The binding activity was tested, and experimental data was analyzed using HEK293 cells (HEK-CLD18A2) stably expressing human CLD18A2, GraphPad Prism and Guava easyCyte™ HT System instrument, and the results are shown in FIG. 6.
The mutant hu8E5-2I of the humanized antibody hu8E5 was constructed as described in Example 3. Experimental data was analyzed using HEK293 cells (HEK-CLD18A2) stably expressing human CLD18A2, GraphPad Prism and Guava easyCyte™ HT System instrument, and the results are shown in FIG. 7.

Row | Molecule | binding to human CLD18A2 (human CLD18A2 [1]) | EC50 (human CLD18A2 [2])
1 | 3E12: murine anti-CLD18A2 monoclonal antibody, VH SEQ ID NO:7, VL SEQ ID NO:5 (antibody, V domains shown) VH: QVQLQQSGPELVKPGALVKISCKASGYTFTSYDINWVKQRPGQGLEWIGWIYPGDGSTKYNEKFKGKATLTADKSSSTAYMQLSSLTSENSAVYFCARGGYRYDEAMDYWGQGTTVTVSS VL: QIVLTQSPAIMSASPGEKVTMTCSASSSISYMHWYQQKPGTSPKRWIYDTSKLASGVPARFSGSGSGTSYSLTISSMEAEDAATYYCHQRSSYPYTFGGGTKLEIKR | specifically bound to human CLD18A2 | –
2 | 4A11: murine anti-CLD18A2 monoclonal antibody, VH SEQ ID NO:11, VL SEQ ID NO:9 (antibody, V domains shown) VH: QIQLVQSGPELKKPGETVKISCKASGYTFTNYGMNWVKQAPGKGLKWMGWINTNTGEPTYAEEFKGRFAFSLETSASTAYLQINNLKNEDTATYFCARFSYGNSFAYWGQGTTVTVSS VL: DIVMTQSPSSLSVSAGEKVTMSCKSSQSLLNSGNQKNYLAWYQQKPGQPPKLLIYGASTRESGVPDRFTGSGSGTDFTLTISSVQAEDLAVYYCQNDHSYPLTFGAGTKLELKR | specifically bound to human CLD18A2 | –
3 | 8E5: murine anti-CLD18A2 monoclonal antibody, VH SEQ ID NO:15, VL SEQ ID NO:13 (antibody, V domains shown) VH: DVQLQESGPDLVKPSQSLSLTCTVTGYSITSGYNWHWIRQFPGNKMEWMGYIHYTGSTNYNPSLRSRISITRDTSKNQFFLQLNSVTTDDTATYYCTRIYNGNSFPYWGQGTSVTVSS VL: DIVMTQSPSSLTVTPGEKVTMTCKSSQSLFNSGNQKNYLTWYQQRPGQPPKMLIYWASTRESGVPDRFTGSGSGTDFTLTISSVQAEDLAVFYCQNAYSFPYTFGGGTKLEIKR | specifically bound to human CLD18A2 | 49.2 nM
